We go through one substance from PMC2897846.

This assay concerns the target CD40 on human B cells (human (endogenous in B cells from PBMC)) (UniProt P25942).
UniProt P25942, sequence (P25942 21-277): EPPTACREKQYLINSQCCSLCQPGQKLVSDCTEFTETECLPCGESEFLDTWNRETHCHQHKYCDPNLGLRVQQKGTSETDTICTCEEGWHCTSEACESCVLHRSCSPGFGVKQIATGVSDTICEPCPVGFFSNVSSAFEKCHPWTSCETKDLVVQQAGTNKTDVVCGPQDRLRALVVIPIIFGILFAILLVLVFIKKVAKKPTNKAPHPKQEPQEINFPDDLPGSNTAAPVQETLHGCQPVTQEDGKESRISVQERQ

In turn, “CD40 ligand (CD40L, CD154) incorporated into HIV virions (from UniProt P29965 1-261)” gave an intracellular AID protein (flow cytometry) in CD19+ B cells exposed to CD40L+ HIV NL4-3 for three days (% of CD19+ cells) of 2.11.
